The results in this text go back to paper PMC4917396.

The target in test [1] is recombinant full-length murine amelogenin with an uncleavable N-terminal histidine tag (rp(H)M180) (mouse). As to the kind of experiment: in situ AFM with volume analysis of adsorbates.
The target is the same in test [2]. Put plainly: in situ AFM coverage with Hill fit.
Test [3] deals with recombinant full-length murine amelogenin without tag (rpM179) (mouse). Put plainly: in situ AFM with volume analysis of adsorbates.
The target is the same in test [4]. Put plainly: DLS.
The target is the same in test [5]. As to the kind of experiment: in situ AFM with volume analysis of adsorbates. This is another data set of the same source.
For test [6] the target is unchanged. Put plainly: in situ AFM with volume analysis of adsorbates. This is another data set of the same source.
Test [7] has the same target. Put plainly: in situ AFM coverage with Hill fit.

“And” between values parts separate entries of the source, which are not always exact repeats. Equal values may be shown once.

“recombinant full-length murine amelogenin with an uncleavable N-terminal histidine tag (rp(H)M180) (natural protein)”: the stoichiometry N (as a rule, the number of molecules, sites or subunits per partner or assembly) in test [1] was 25 monomers. Besides, in test [2], the ln Ka was 76.2 Ka in M^-n.

As for “recombinant full-length murine amelogenin without tag (rpM179) (natural protein)”, the stoichiometry N was 150 monomers in test [3]; 200 monomers in test [4]; 100 monomers and 200 monomers in test [5]; 25 monomers in test [6]. Also, the ln Ka in test [7] amounted to 3.35 Ka in M^-n.
